Experimental data from US20040037843A1.

The substances below were run against HLA-A*0101 (purified HLA class I molecule) (human) (assay: not given). Details: not given.
Substance “PSM peptide, position 196, 10 amino acids (A1 supermotif)” has a relative binding ratio (IC50 of standard peptide / IC50 of test peptide) of 0.016.

These substances were tested against HLA-A*6802 (human) (assay: competition with 125I-labelled standard peptide for purified HLA). Details: not given.
Work on peptide 1126.01, PSM.663 yielded an IC50 of 976 nM.
peptide 1129.10, PSM.288 gave an IC50 of 1540 nM.

The substances below were run against HLA-A*0206 (human) in the same assay as above. Details: not given.
For peptide 1419.24, PSA.166.V10, the IC50 was 502 nM.

The substances below were run against HLA-A*2401 (human) (assay: not given). Details: scale: ratio.
Substance “PSA (Prostate Specific Antigen) peptide, position 2, 9 amino acids” has a relative binding ratio (A*2401) of 2.1.
“PSA (Prostate Specific Antigen) peptide, position 2, 10 amino acids” was tested, and the relative binding ratio (A*2401) was 0.0062.
For “PSA (Prostate Specific Antigen) peptide, position 9, 9 amino acids”, the relative binding ratio (A*2401) was 0.11.
Work on “PSA (Prostate Specific Antigen) peptide, position 9, 10 amino acids” yielded a relative binding ratio (A*2401) of 0.36.
Substance “PSM (Prostate Specific Membrane Antigen) peptide, position 624, 10 amino acids” has a relative binding ratio (A*2401) of 3.2.

Each substance was assayed against HLA-A*2401 (human) (assay: competition with 125I-labelled probe peptide for purified HLA, gel filtration). Details: not given.
For “PSA position 98, 9 amino acids (peptide)”, the relative binding ratio (IC50 of standard peptide / IC50 of test peptide) was 0.0001.
In the case of “PSA position 190, 9 amino acids (peptide)”, the relative binding ratio (IC50 of standard peptide / IC50 of test peptide) is reported as 0.031.
In the case of “PSM position 31, 9 amino acids (printed as 8 in Table XVIII) (peptide)”, the relative binding ratio (IC50 of standard peptide / IC50 of test peptide) is reported as 0.019.
“PSM position 32, 10 amino acids (peptide)” gave a relative binding ratio (IC50 of standard peptide / IC50 of test peptide) of 0.0026.
“PSM position 409, 10 amino acids (peptide)” was tested, and the relative binding ratio (IC50 of standard peptide / IC50 of test peptide) was 0.054.
“PSM position 448, 9 amino acids (peptide)” gave a relative binding ratio (IC50 of standard peptide / IC50 of test peptide) of 0.019.
Work on “PSM position 565, 10 amino acids (peptide)” yielded a relative binding ratio (IC50 of standard peptide / IC50 of test peptide) of 1.1.
With “PSM position 582, 10 amino acids (peptide)” the relative binding ratio (IC50 of standard peptide / IC50 of test peptide) was 0.0002.
With “PSM position 606, 9 amino acids (peptide)” the relative binding ratio (IC50 of standard peptide / IC50 of test peptide) was 12.
In the case of “PSM position 621, 9 amino acids (peptide)”, the relative binding ratio (IC50 of standard peptide / IC50 of test peptide) is reported as 0.001.

Each substance was assayed against HLA-A*0101 (human) (assay: not given). Details: not given.
Work on “PSM peptide, position 196, 10 amino acids” yielded a relative binding ratio (IC50 of standard peptide / IC50 of test peptide) of 0.016.

Each substance was assayed against HLA-A*2401 (purified HLA class I molecule) (human) (assay: not given). Details: not given.
Work on “PSM (prostate specific membrane antigen) peptide, position 31, 9 amino acids” yielded a relative binding ratio (IC50 of standard peptide / IC50 of test peptide) of 0.019.
Substance “PSM (prostate specific membrane antigen) peptide, position 32, 10 amino acids” has a relative binding ratio (IC50 of standard peptide / IC50 of test peptide) of 0.0026.
In the case of “PSM (prostate specific membrane antigen) peptide, position 565, 10 amino acids”, the relative binding ratio (IC50 of standard peptide / IC50 of test peptide) is reported as 1.1.
For “PSM (prostate specific membrane antigen) peptide, position 582, 10 amino acids”, the relative binding ratio (IC50 of standard peptide / IC50 of test peptide) was 0.0002.
“PSM (prostate specific membrane antigen) peptide, position 621, 9 amino acids (from UniProt Q04609 621-629)” showed a relative binding ratio (IC50 of standard peptide / IC50 of test peptide) of 0.001.

Each substance was assayed against HLA-A*2401 (purified HLA class I molecule) (human) (assay: competition with 125I-labelled probe peptide on purified HLA, gel filtration). Details: not given.
Substance “PAP peptide, position 163, 10 amino acids” has a relative binding ratio (IC50 of standard peptide / IC50 of test peptide) of 0.0001.
“PAP peptide, position 183, 9 amino acids” was tested, and the relative binding ratio (IC50 of standard peptide / IC50 of test peptide) was 0.11.
Substance “PAP peptide, position 297, 10 amino acids” has a relative binding ratio (IC50 of standard peptide / IC50 of test peptide) of 0.0001.
In the case of “PAP peptide, position 309, 10 amino acids”, the relative binding ratio (IC50 of standard peptide / IC50 of test peptide) is reported as 0.024.
In the case of “PAP peptide, position 355, 10 amino acids”, the relative binding ratio (IC50 of standard peptide / IC50 of test peptide) is reported as 0.0037.
In the case of “PSA peptide, position 54, 10 amino acids”, the relative binding ratio (IC50 of standard peptide / IC50 of test peptide) is reported as 0.0007.
Work on “PSM peptide, position 178, 9 amino acids” yielded a relative binding ratio (IC50 of standard peptide / IC50 of test peptide) of 0.77.
In the case of “PSM peptide, position 638, 9 amino acids”, the relative binding ratio (IC50 of standard peptide / IC50 of test peptide) is reported as 0.0001.

What follows are substances tested against HLA-A*6802 (human) (assay: competition with 125I-labelled standard peptide for purified HLA, gel filtration). Details: not given.
Substance “PSM position 168, 10 amino acids (peptide)” has a relative binding ratio of 0.0013.

These substances were tested against HLA-A*2401 (purified HLA class I molecule) (human) in the same assay as above. Details: not given.
Substance “PAP position 297, 10 amino acids (peptide)” has a relative binding ratio (IC50 of standard peptide / IC50 of test peptide) of 0.0001.
Work on PSA position 2, 9 amino acids (peptide) yielded a relative binding ratio (IC50 of standard peptide / IC50 of test peptide) of 2.1.
“PSA position 2, 10 amino acids (peptide)” was tested, and the relative binding ratio (IC50 of standard peptide / IC50 of test peptide) was 0.0062.
PSA position 9, 9 amino acids (peptide) gave a relative binding ratio (IC50 of standard peptide / IC50 of test peptide) of 0.11.
“PSA position 9, 10 amino acids (peptide)” gave a relative binding ratio (IC50 of standard peptide / IC50 of test peptide) of 0.36.
Substance “PSA position 54, 10 amino acids (peptide)” has a relative binding ratio (IC50 of standard peptide / IC50 of test peptide) of 0.0007.
For “PSA position 96, 11 amino acids (peptide)”, the relative binding ratio (IC50 of standard peptide / IC50 of test peptide) was 0.12.
“PSA position 224, 9 amino acids (peptide)” was tested, and the relative binding ratio (IC50 of standard peptide / IC50 of test peptide) was 0.0001.
Substance “PSM position 74, 10 amino acids (peptide)” has a relative binding ratio (IC50 of standard peptide / IC50 of test peptide) of 0.23.
With “PSM position 178, 9 amino acids (peptide)” the relative binding ratio (IC50 of standard peptide / IC50 of test peptide) was 0.77.
Substance “PSM position 227, 9 amino acids (peptide)” has a relative binding ratio (IC50 of standard peptide / IC50 of test peptide) of 0.44.
Work on “PSM position 624, 10 amino acids (peptide)” yielded a relative binding ratio (IC50 of standard peptide / IC50 of test peptide) of 3.2.
In the case of “PSM position 638, 9 amino acids (peptide)”, the relative binding ratio (IC50 of standard peptide / IC50 of test peptide) is reported as 0.0001.
With “PSM position 668, 9 amino acids (peptide)” the relative binding ratio (IC50 of standard peptide / IC50 of test peptide) was 0.0075.

What follows are substances tested against HLA-A*2401 (human) (assay: not given). Details: not given.
Substance “PSA peptide, position 91, 9 amino acids (A24 supermotif)” has a relative binding ratio (IC50 of standard peptide / IC50 of test peptide) of 0.0007.
For “PSA peptide, position 224, 9 amino acids (A24 supermotif)”, the relative binding ratio (IC50 of standard peptide / IC50 of test peptide) was 0.0001.

Molecular target: HLA-A*2401 (human)
Test: not given
Details: not given
Remark: another data set of the same source
For “PSA position 190, 9 amino acids (…) (peptide)”, the relative binding ratio (IC50 of standard peptide / IC50 of test peptide) was 0.031.
For “PSM position 409, 10 amino acids (…) (peptide)”, the relative binding ratio (IC50 of standard peptide / IC50 of test peptide) was 0.054.

Molecular target: HLA-A*2401 (human)
Test: competition with 125I-labelled probe peptide for purified HLA, gel filtration
Details: not given
Remark: another data set of the same source
“PAP position 70, 10 amino acids (peptide)” showed a relative binding ratio (IC50 of standard peptide / IC50 of test peptide) of 0.0022.
For “PSA position 96, 11 amino acids (peptide)”, the relative binding ratio (IC50 of standard peptide / IC50 of test peptide) was 0.12.
With “PSM position 74, 10 amino acids (peptide)” the relative binding ratio (IC50 of standard peptide / IC50 of test peptide) was 0.23.
“PSM position 227, 9 amino acids (peptide)” showed a relative binding ratio (IC50 of standard peptide / IC50 of test peptide) of 0.44.
“PSM position 606, 9 amino acids (peptide)” gave a relative binding ratio (IC50 of standard peptide / IC50 of test peptide) of 12.
“PSM position 668, 9 amino acids (peptide)” gave a relative binding ratio (IC50 of standard peptide / IC50 of test peptide) of 0.0075.
